Source: the supplement of paper PMC10126150
± gives the standard deviation of the averaged measurements.

Tested on: ATP
Experiment: switch fluorescence ratio, 500 uM ATP over buffer (Cy3 cluster intensity, sum of 5 cycles each) (fold (ratio)); higher = stronger signal-on switching upon ATP binding; sequences stand for … in TCGTCGGCAGCGTCAGATGTGTATAAGAGACAGTTTTTTTTTTTTTTTTTTTTTTTTT…TC
Conditions: aptamer strand: ATP DNA aptamer (quencher-CACCTGGGGGAGTATTGCGGAGGAAGG + anchor), 100 nM annealed; ATP concentration: 500 uM
Method in brief: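 The fluorescence ratio divides summed target-cycle Cy3 intensity by summed buffer-cycle Cy3 intensity for each cluster and is averaged per switch-domain sequence. Cy3-labelled switching-strand clusters on a modified Illumina MiSeq flow-cell were annealed to 100 nM quencher-labelled ATP aptamer, then imaged in selection buffer and again after 15 min with 500 uM ATP at 22 °C. Five such cycles were run, with NaOH stripping and re-annealing between them, and clusters outside 100-1000 RFU were excluded.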
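Also: ATP exposure 15 min at 22 °C before imaging.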

Row | Sequence | switch fluorescence ratio
1 | CCATTATAT | 0.982 ± 0.043
2 | GGTTCATGAT | 0.993 ± 0.024
3 | GTTTGCTCCC | 1.15 ± 0.086
4 | GGCCTCGCCT | 0.98511 ± 9.3e-05
5 | GACGGGGGGT | 1 ± 0.041
6 | TTTTAAACCG | 1.05 ± 0.17
7 | CGAACAGGTT | 1.04 ± 0.02
8 | AGGCTTGGGC | 0.971 ± 0.012
9 | GGGGTTTGAG | 1.001 ± 0.0057
10 | TATCTATCAT | 0.969 ± 0.024
11 | CCAGAGGCTA | 1.1475 ± 0.00019
12 | TTGACTGTTC | 1.04 ± 0.043
13 | CGTTAGATGG | 1.01 ± 0.011
14 | ATTTTTGAGA | 0.986 ± 0.017
15 | GTTTCTGTTA | 0.9574 ± 0.0033
16 | TATTAAGCAG | 1.07 ± 0.038
17 | CGACTTTCAA | 1.05 ± 0.032
18 | TTCATTTTGA | 0.967 ± 0.015
19 | TGGCGTGGGG | 1.01 ± 0.021
20 | GCGTATACGC | 1.04 ± 0.041
21 | ATGACTTGGG | 0.96 ± 0.011
22 | GTTGCGGGGG | 0.9937 ± 0.0015
23 | TTATGACCAG | 1.009 ± 0.0095

Row | Sequence | switch fluorescence ratio
24 | CTAAAGGGGG | 0.998 ± 0.029
25 | TTTCATGGGT | 1 ± 0.018
26 | TGCTAGGGAA | 0.975 ± 0.015
27 | TTTTTGATTG | 1.01 ± 0.014
28 | TGACATAGGA | 1.001 ± 0.0029
29 | GATTTCAAAC | 0.9817 ± 0.0045
30 | GTCTCGGCAT | 1.2 ± 0.044
31 | GGAATAGAAA | 0.994 ± 0.033
32 | TGCGGAAAAC | 1.72 ± 0.82
33 | ATGGGGCATA | 1.01 ± 0.045
34 | GTGGTTTCTG | 0.984 ± 0.1
35 | GGGATGGGAA | 1.02 ± 0.022
36 | TTTTTACGAG | 0.988 ± 0.045
37 | TAATCGACTT | 1.02 ± 0.014
38 | GATAGTGTTG | 0.992 ± 0.041
39 | TTTGAGTTGG | 1 ± 0.02
40 | TTGAGGCGAT | 1.23 ± 0.22
41 | CGCTACTTAT | 1.12 ± 0.029
42 | ATCATTTGTT | 0.991 ± 0.017
43 | GGGGCGGGAG | 1.03 ± 0.042
44 | TTTTAAGGG | 1.02 ± 0.022
45 | TTTTATGTTG | 1.01 ± 0.04
46 | GGTTAACGGA | 1 ± 0.016

Row | Sequence | switch fluorescence ratio
47 | CAAGGTAAGG | 0.984 ± 0.011
48 | TGTGATAGTT | 0.999 ± 0.015
49 | TGGGGGACCC | 1 ± 0.061
50 | TGATCTTTCT | 1.01 ± 0.059
51 | CGGGGCTAGC | 1.02 ± 0.026
52 | GGGTGAGGCA | 0.9988 ± 0.0086
53 | ATTGTGTCTA | 0.9935 ± 0.007
54 | TCGGATAAGT | 1.01 ± 0.034
55 | TACAGCTGCG | 1.007 ± 0.0015
56 | TGTGGGAAAT | 0.988 ± 0.016
57 | AGTTTGGACA | 0.997 ± 0.015
58 | TTCGGCTCGA | 1.05 ± 0.034
59 | TGTTCTCAAA | 0.98346 ± 0.00079
60 | AGGCCGGGGT | 1.01 ± 0.055
61 | AATCGTTAGG | 0.969 ± 0.022
62 | GGTATTTTTA | 0.9758 ± 0.0046
63 | TTTGATTTAC | 1 ± 0.028
64 | ATTTTGTCTC | 1.01 ± 0.013
65 | AACTATGCAG | 1.02 ± 0.017
66 | CGAAGCGCCC | 4.36 ± 3
67 | TTAGGGACAG | 0.987 ± 0.027
68 | TGGTCCCTTG | 1.12 ± 0.16
69 | TTTTTCCTAC | 1 ± 0.016

Row | Sequence | switch fluorescence ratio
70 | TGAGTGGGGT | 1.02 ± 0.031
71 | GCTGTGGGTG | 1 ± 0.021
72 | ATAGGAAGGA | 1.04 ± 0.056
73 | CTTTTCTTGG | 0.991 ± 0.03
74 | AATTTGCGTT | 0.999 ± 0.013
75 | CGGAAAAAGC | 0.985 ± 0.028
76 | GGTGGGAACA | 0.992 ± 0.03
77 | GATGTCTAGT | 0.983 ± 0.015
78 | TTCGAGAGGG | 0.981 ± 0.028
79 | AGGGAGCGCG | 0.995 ± 0.011
80 | CATGAGGTTC | 0.974 ± 0.03
81 | AAGGTGTGCG | 1.02 ± 0.024
82 | TCTGGGTCGC | 1.02 ± 0.017
83 | ATCGTGTTGA | 0.971 ± 0.02
84 | TGGATAAGTG | 0.998 ± 0.048
85 | AACTTTATGA | 1.02 ± 0.01
86 | AAACTGATGC | 1.03 ± 0.052
87 | TATCTCGGGA | 0.988 ± 0.02
88 | ACTAGAGGAC | 1 ± 0.04
89 | GGGGGGACCT | 1.06 ± 0.043
90 | GGCTGAGCCT | 0.991 ± 0.038
91 | GGATTTTTCA | 0.985 ± 0.013
92 | ATTGAAGGGG | 0.975 ± 0.016

Row | Sequence | switch fluorescence ratio
93 | TTTGGCTTGT | 0.9714 ± 0.0068
94 | ATATACCGTC | 1.05 ± 0.028
95 | CGGCTAGGGT | 0.998 ± 0.021
96 | GACTTAGCTT | 1.046 ± 0.0055
97 | GACGAAGTTT | 1.32 ± 0.7
98 | ACTGTTTGGA | 0.995 ± 0.0037
99 | TTTTTAGATT | 1.02 ± 0.031
100 | TGGTTCCAAA | 0.971 ± 0.008
101 | GGAAAAGGGA | 1.01 ± 0.049
102 | GGTTCGTCAC | 1.11 ± 0.1
103 | TGGGTCATTT | 0.99 ± 0.034
104 | CGTATTGAGA | 0.968 ± 0.057
105 | AAAGGGGCGG | 1.02 ± 0.022
106 | TATGATTTGC | 1 ± 0.012
107 | CGGCAGGCGG | 1.05 ± 0.044
108 | TGCGCTATGT | 1.07 ± 0.022
109 | GCCTCATAGG | 0.994 ± 0.019
110 | CCGAGTGCAG | 2.24 ± 0.33
111 | TACTCGGGGT | 1.004 ± 0.0064
112 | GGTTCATCGG | 0.9912 ± 0.0029
113 | CGGGGGCGGT | 0.998 ± 0.03
114 | GAGGTCAGTG | 0.974 ± 0.019
115 | TATGTTTCCT | 1.02 ± 0.037

Row | Sequence | switch fluorescence ratio
116 | AAGGGGGCCA | 0.982 ± 0.074
117 | GTTGTGGGGA | 1.02 ± 0.023
118 | CCTGGGATT | 1.02 ± 0.011
119 | GGTCGTCTGC | 0.984 ± 0.018
120 | GCTTGCTCCG | 4.46 ± 0.87
121 | CCTATTCGTT | 1.0064 ± 0.0008
122 | AAGCGTTTTT | 1.018 ± 0.0045
123 | TGGTAGAAGG | 0.954 ± 0.013
124 | GGTTATGGAG | 0.964 ± 0.046
125 | AGCAAACTTG | 1.04 ± 0.049
126 | CGAGGAATTT | 1.04 ± 0.043
127 | ACCCAATTTT | 1.03 ± 0.036
128 | TTGGTTAGGG | 0.986 ± 0.027
129 | GCCGGGTACG | 0.992 ± 0.029
130 | CGTCTGAATG | 0.9983 ± 0.0024
131 | TTGGGGGGAT | 1.02 ± 0.053
132 | CGGTGGTCGC | 0.984 ± 0.019
133 | AGTAAGATAA | 0.986 ± 0.058
134 | GTTAGACTAT | 0.99057 ± 0.00092
135 | GATACCCTTG | 1.01 ± 0.013
136 | TAGGGGGTTC | 1.01 ± 0.027
137 | TTTTTTTCT | 1.01 ± 0.046
138 | TACTTGAGTA | 1.0026 ± 0.00022

Row | Sequence | switch fluorescence ratio
139 | TTGAGGTATG | 0.9838 ± 0.0046
140 | GTGTCTTGGA | 0.9893 ± 0.0052
141 | TGGGCGGGGA | 1.03 ± 0.048
142 | AGTGTACCGG | 0.997 ± 0.01
143 | TTTAAGAAAT | 0.986 ± 0.011
144 | TTTCAAATTG | 0.973 ± 0.028
145 | GATTTGCCGA | 1.034 ± 0.005
146 | AAACGAAATT | 1.03 ± 0.068
147 | CTCGTTTAGA | 1.022 ± 0.0084
148 | TGTTGTGGGA | 0.979 ± 0.019
149 | TTGCGGTGTG | 1 ± 0.024
150 | TATCGGGGTG | 0.996 ± 0.053
151 | GCTCTATTTT | 0.997 ± 0.019
152 | AATTCGGGCG | 1.02 ± 0.071
153 | GCGGGTGGGG | 1.05 ± 0.029
154 | GGTTTGATGC | 0.962 ± 0.055
155 | CAGATTTTGA | 0.9804 ± 0.0045
156 | TCAGAGGCGT | 0.9964 ± 0.0056
157 | AAGTTACATT | 1.05 ± 0.012
